# Patent publication US12630600B2 (MEDIMMUNE LIMITED, priority 2022, dated 2026)
# Starred links: 1 amine or outer side, 2 acyl side, 3 side chain; linkers in the order of their positions; H or OH if unused. Non-standard residues stand in square brackets, D forms with d. Groups on a side chain read outwards from the residue. No end group written: not given here. *: point of attachment. C20 diacid = O=C(O)CCCCCCCCCCCCCCCCCCC(=O)*; C18 diacid = O=C(O)CCCCCCCCCCCCCCCCC(=O)*; γGlu = O=C(O)[C@H](CCC(=O)[*:2])N[*:1]; αMeF = C[C@](N)(Cc1ccccc1)C(=O)O; AEEA = NCCOCCOCC(=O)O; Aib = CC(C)(N)C(=O)O
# Columns and labels:
# human GLP-1 receptor = human GLP-1 receptor (human, UniProt P43220); assay: cell-based or functional assay
# human glucagon receptor = human glucagon receptor (human, UniProt P47871); assay: cell-based or functional assay
Binder,cAMP production EC50 (human GLP-1 receptor) [pM],cAMP production EC50 (human glucagon receptor) [pM]
H[Aib]QGTFTSDVSK[αMeF]LDTK([AEEA-AEEA-γGlu-γGlu-C18 diacid])RAQDFVQWLLE[Aib]G-NH2 [Peptide 468],67.5,292
H[Aib]QGTFTSDVSK[αMeF]LDKK([AEEA-AEEA-γGlu-C20 diacid])RARDFVQWLL[Aib]E-NH2 (N-terminus assumed; SMILES CC(C)C[C@H](NC(=O)[C@H](Cc1c[nH]c2ccccc12)NC(=O)[C@H](CCC(N)=O)NC(=O)[C@@H](NC(=O)[C@H](Cc1ccccc1)NC(=O)[C@H](CC(=O)O)NC(=O)[C@H](CCCNC(=N)N)NC(=O)[C@H](C)NC(=O)[C@H](CCCNC(=N)N)NC(=O)[C@H](CCCCNC(=O)COCCOCCNC(=O)COCCOCCNC(=O)CC[C@H](NC(=O)CCCCCCCCCCCCCCCCCCC(=O)O)C(=O)O)NC(=O)[C@H](CCCCN)NC(=O)[C@H](CC(=O)O)NC(=O)[C@H](CC(C)C)NC(=O)[C@](C)(Cc1ccccc1)NC(=O)[C@H](CCCCN)NC(=O)[C@H](CO)NC(=O)[C@@H](NC(=O)[C@H](CC(=O)O)NC(=O)[C@H](CO)NC(=O)[C@@H](NC(=O)[C@H](Cc1ccccc1)NC(=O)[C@@H](NC(=O)CNC(=O)[C@H](CCC(N)=O)NC(=O)C(C)(C)NC(=O)[C@@H](N)Cc1c[nH]cn1)[C@@H](C)O)[C@@H](C)O)C(C)C)C(C)C)C(=O)N[C@@H](CC(C)C)C(=O)NC(C)(C)C(=O)N[C@@H](CCC(=O)O)C(N)=O) [Peptide 470],55.9,30.3
H[Aib]QGTFTSDVSK[αMeF]LDLK([AEEA-AEEA-γGlu-γGlu-C18 diacid])RAQDFVQWLL[Aib]T-OH (N-terminus assumed; SMILES CC(C)C[C@H](NC(=O)[C@H](CC(=O)O)NC(=O)[C@H](CC(C)C)NC(=O)[C@](C)(Cc1ccccc1)NC(=O)[C@H](CCCCN)NC(=O)[C@H](CO)NC(=O)[C@@H](NC(=O)[C@H](CC(=O)O)NC(=O)[C@H](CO)NC(=O)[C@@H](NC(=O)[C@H](Cc1ccccc1)NC(=O)[C@@H](NC(=O)CNC(=O)[C@H](CCC(N)=O)NC(=O)C(C)(C)NC(=O)[C@@H](N)Cc1c[nH]cn1)[C@@H](C)O)[C@@H](C)O)C(C)C)C(=O)N[C@@H](CCCCNC(=O)COCCOCCNC(=O)COCCOCCNC(=O)CC[C@H](NC(=O)CC[C@H](NC(=O)CCCCCCCCCCCCCCCCC(=O)O)C(=O)O)C(=O)O)C(=O)N[C@@H](CCCNC(=N)N)C(=O)N[C@@H](C)C(=O)N[C@@H](CCC(N)=O)C(=O)N[C@@H](CC(=O)O)C(=O)N[C@@H](Cc1ccccc1)C(=O)N[C@H](C(=O)N[C@@H](CCC(N)=O)C(=O)N[C@@H](Cc1c[nH]c2ccccc12)C(=O)N[C@@H](CC(C)C)C(=O)N[C@@H](CC(C)C)C(=O)NC(C)(C)C(=O)N[C@H](C(=O)O)[C@@H](C)O)C(C)C) [Peptide 465],485,436
H[Aib]QGTFTSDVSK[αMeF]LDTK([AEEA-AEEA-γGlu-C18 diacid])RAQDFVQWLLE[Aib]G-NH2 (N-terminus assumed; SMILES CC(C)C[C@H](NC(=O)[C@H](Cc1c[nH]c2ccccc12)NC(=O)[C@H](CCC(N)=O)NC(=O)[C@@H](NC(=O)[C@H](Cc1ccccc1)NC(=O)[C@H](CC(=O)O)NC(=O)[C@H](CCC(N)=O)NC(=O)[C@H](C)NC(=O)[C@H](CCCNC(=N)N)NC(=O)[C@H](CCCCNC(=O)COCCOCCNC(=O)COCCOCCNC(=O)CC[C@H](NC(=O)CCCCCCCCCCCCCCCCC(=O)O)C(=O)O)NC(=O)[C@@H](NC(=O)[C@H](CC(=O)O)NC(=O)[C@H](CC(C)C)NC(=O)[C@](C)(Cc1ccccc1)NC(=O)[C@H](CCCCN)NC(=O)[C@H](CO)NC(=O)[C@@H](NC(=O)[C@H](CC(=O)O)NC(=O)[C@H](CO)NC(=O)[C@@H](NC(=O)[C@H](Cc1ccccc1)NC(=O)[C@@H](NC(=O)CNC(=O)[C@H](CCC(N)=O)NC(=O)C(C)(C)NC(=O)[C@@H](N)Cc1c[nH]cn1)[C@@H](C)O)[C@@H](C)O)C(C)C)[C@@H](C)O)C(C)C)C(=O)N[C@@H](CC(C)C)C(=O)N[C@@H](CCC(=O)O)C(=O)NC(C)(C)C(=O)NCC(N)=O) [Peptide 466],35.6,131
H[Aib]QGTFTSDVSK[αMeF]LDTK([AEEA-AEEA-γGlu-γGlu-C20 diacid])RAQDFVQWLLE[Aib]G-NH2 (N-terminus assumed; SMILES CC(C)C[C@H](NC(=O)[C@H](Cc1c[nH]c2ccccc12)NC(=O)[C@H](CCC(N)=O)NC(=O)[C@@H](NC(=O)[C@H](Cc1ccccc1)NC(=O)[C@H](CC(=O)O)NC(=O)[C@H](CCC(N)=O)NC(=O)[C@H](C)NC(=O)[C@H](CCCNC(=N)N)NC(=O)[C@H](CCCCNC(=O)COCCOCCNC(=O)COCCOCCNC(=O)CC[C@H](NC(=O)CC[C@H](NC(=O)CCCCCCCCCCCCCCCCCCC(=O)O)C(=O)O)C(=O)O)NC(=O)[C@@H](NC(=O)[C@H](CC(=O)O)NC(=O)[C@H](CC(C)C)NC(=O)[C@](C)(Cc1ccccc1)NC(=O)[C@H](CCCCN)NC(=O)[C@H](CO)NC(=O)[C@@H](NC(=O)[C@H](CC(=O)O)NC(=O)[C@H](CO)NC(=O)[C@@H](NC(=O)[C@H](Cc1ccccc1)NC(=O)[C@@H](NC(=O)CNC(=O)[C@H](CCC(N)=O)NC(=O)C(C)(C)NC(=O)[C@@H](N)Cc1c[nH]cn1)[C@@H](C)O)[C@@H](C)O)C(C)C)[C@@H](C)O)C(C)C)C(=O)N[C@@H](CC(C)C)C(=O)N[C@@H](CCC(=O)O)C(=O)NC(C)(C)C(=O)NCC(N)=O) [Peptide 469],255,538

# Now from value to binder:
cAMP production EC50 (human GLP-1 receptor) [pM],cAMP production EC50 (human glucagon receptor) [pM],Binder
7.63,11.1,H[Aib]QGTFTSDVSK[αMeF]LDKK([AEEA-AEEA-γGlu-C18 diacid])RARDFVQWLL[Aib]E-NH2 (N-terminus assumed; SMILES CC(C)C[C@H](NC(=O)[C@H](Cc1c[nH]c2ccccc12)NC(=O)[C@H](CCC(N)=O)NC(=O)[C@@H](NC(=O)[C@H](Cc1ccccc1)NC(=O)[C@H](CC(=O)O)NC(=O)[C@H](CCCNC(=N)N)NC(=O)[C@H](C)NC(=O)[C@H](CCCNC(=N)N)NC(=O)[C@H](CCCCNC(=O)COCCOCCNC(=O)COCCOCCNC(=O)CC[C@H](NC(=O)CCCCCCCCCCCCCCCCC(=O)O)C(=O)O)NC(=O)[C@H](CCCCN)NC(=O)[C@H](CC(=O)O)NC(=O)[C@H](CC(C)C)NC(=O)[C@](C)(Cc1ccccc1)NC(=O)[C@H](CCCCN)NC(=O)[C@H](CO)NC(=O)[C@@H](NC(=O)[C@H](CC(=O)O)NC(=O)[C@H](CO)NC(=O)[C@@H](NC(=O)[C@H](Cc1ccccc1)NC(=O)[C@@H](NC(=O)CNC(=O)[C@H](CCC(N)=O)NC(=O)C(C)(C)NC(=O)[C@@H](N)Cc1c[nH]cn1)[C@@H](C)O)[C@@H](C)O)C(C)C)C(C)C)C(=O)N[C@@H](CC(C)C)C(=O)NC(C)(C)C(=O)N[C@@H](CCC(=O)O)C(N)=O) [Peptide 472]
8.04,56.9,H[Aib]QGTFTSDVSK[αMeF]LDTK([AEEA-AEEA-γGlu-C18 diacid])RARDFVQWLLA[Aib]G-NH2 (N-terminus assumed; SMILES CC(C)C[C@H](NC(=O)[C@H](CC(C)C)NC(=O)[C@H](Cc1c[nH]c2ccccc12)NC(=O)[C@H](CCC(N)=O)NC(=O)[C@@H](NC(=O)[C@H](Cc1ccccc1)NC(=O)[C@H](CC(=O)O)NC(=O)[C@H](CCCNC(=N)N)NC(=O)[C@H](C)NC(=O)[C@H](CCCNC(=N)N)NC(=O)[C@H](CCCCNC(=O)COCCOCCNC(=O)COCCOCCNC(=O)CC[C@H](NC(=O)CCCCCCCCCCCCCCCCC(=O)O)C(=O)O)NC(=O)[C@@H](NC(=O)[C@H](CC(=O)O)NC(=O)[C@H](CC(C)C)NC(=O)[C@](C)(Cc1ccccc1)NC(=O)[C@H](CCCCN)NC(=O)[C@H](CO)NC(=O)[C@@H](NC(=O)[C@H](CC(=O)O)NC(=O)[C@H](CO)NC(=O)[C@@H](NC(=O)[C@H](Cc1ccccc1)NC(=O)[C@@H](NC(=O)CNC(=O)[C@H](CCC(N)=O)NC(=O)C(C)(C)NC(=O)[C@@H](N)Cc1c[nH]cn1)[C@@H](C)O)[C@@H](C)O)C(C)C)[C@@H](C)O)C(C)C)C(=O)N[C@@H](C)C(=O)NC(C)(C)C(=O)NCC(N)=O) [Peptide 474]
11.5,14.1,H[Aib]QGTFTSDVSK[αMeF]LDRK([AEEA-AEEA-γGlu-C18 diacid])RARDFVQWLL[Aib]E-NH2 (N-terminus assumed; SMILES CC(C)C[C@H](NC(=O)[C@H](Cc1c[nH]c2ccccc12)NC(=O)[C@H](CCC(N)=O)NC(=O)[C@@H](NC(=O)[C@H](Cc1ccccc1)NC(=O)[C@H](CC(=O)O)NC(=O)[C@H](CCCNC(=N)N)NC(=O)[C@H](C)NC(=O)[C@H](CCCNC(=N)N)NC(=O)[C@H](CCCCNC(=O)COCCOCCNC(=O)COCCOCCNC(=O)CC[C@H](NC(=O)CCCCCCCCCCCCCCCCC(=O)O)C(=O)O)NC(=O)[C@H](CCCNC(=N)N)NC(=O)[C@H](CC(=O)O)NC(=O)[C@H](CC(C)C)NC(=O)[C@](C)(Cc1ccccc1)NC(=O)[C@H](CCCCN)NC(=O)[C@H](CO)NC(=O)[C@@H](NC(=O)[C@H](CC(=O)O)NC(=O)[C@H](CO)NC(=O)[C@@H](NC(=O)[C@H](Cc1ccccc1)NC(=O)[C@@H](NC(=O)CNC(=O)[C@H](CCC(N)=O)NC(=O)C(C)(C)NC(=O)[C@@H](N)Cc1c[nH]cn1)[C@@H](C)O)[C@@H](C)O)C(C)C)C(C)C)C(=O)N[C@@H](CC(C)C)C(=O)NC(C)(C)C(=O)N[C@@H](CCC(=O)O)C(N)=O) [Peptide 473]
102,63.6,H[Aib]QGTFTSDVSK[αMeF]LDRK([AEEA-AEEA-γGlu-C20 diacid])RARDFVQWLL[Aib]E-NH2 [Peptide 471]
